Read-outs that look alike come from different tables or passages of the source.
Columns and labels:
Experiment in all cases: cell-based or functional assay
[1] = molecular target: T1, human IL-1Rrp2 (IL-1R-related protein 2) (human, UniProt Q9HB29 20-575)
T1 sequence (looked up): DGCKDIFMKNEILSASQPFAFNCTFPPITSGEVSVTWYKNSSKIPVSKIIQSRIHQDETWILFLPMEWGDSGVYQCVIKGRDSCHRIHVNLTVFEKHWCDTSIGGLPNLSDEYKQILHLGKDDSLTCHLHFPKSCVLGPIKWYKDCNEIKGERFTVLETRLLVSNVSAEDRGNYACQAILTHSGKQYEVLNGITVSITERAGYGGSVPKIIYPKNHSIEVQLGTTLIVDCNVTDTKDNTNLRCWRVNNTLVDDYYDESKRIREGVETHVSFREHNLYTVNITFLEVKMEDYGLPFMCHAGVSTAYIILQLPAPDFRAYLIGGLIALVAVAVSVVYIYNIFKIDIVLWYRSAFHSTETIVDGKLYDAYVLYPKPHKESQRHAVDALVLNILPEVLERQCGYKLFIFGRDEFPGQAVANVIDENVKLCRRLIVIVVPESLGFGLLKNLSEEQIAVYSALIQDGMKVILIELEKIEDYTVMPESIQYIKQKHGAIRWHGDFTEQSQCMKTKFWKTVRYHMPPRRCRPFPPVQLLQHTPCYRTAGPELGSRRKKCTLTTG

[2] = molecular target: T1, human IL-1Rrp2 (IL-1R-related protein 2); remark: listed apart in the source
[3] = molecular target: T1, human IL-1Rrp2 (IL-1R-related protein 2); remark: listed apart in the source

B1: HuIL-1F6 WT (untagged full length wild type human IL-1F6) (ligand)
chain: MEKALKIDTPQQGSIQDINHRVWVLQDQTLIAVPRKDRMSPVTIALISCRHVETLEKDRGNPIYLGLNGLNLCLMCAKVGDQPTLQLKEKDIMDLYNQPEPVKSFLFYHSQSGRNSTFESVAFPGWFIAVSSEGGCPLILTQELGKANTTDFGLTMLF
- EC50, IL-8 ELISA of supernatants of Jurkat T-REx cells expressing human IL-1Rrp2 [1]: 12900 ng/mL
- EC50, luciferase reporter assay in IL-1Rrp2 transfected Jurkat cells [1]: > 212 ng/mL

B2: HuIL-1F6WT/FpH (ligand)
chain: MEKALKIDTPQQGSIQDINHRVWVLQDQTLIAVPRKDRMSPVTIALISCRHVETLEKDRGNPIYLGLNGLNLCLMCAKVGDQPTLQLKEKDIMDLYNQPEPVKSFLFYHSQSGRNSTFESVAFPGWFIAVSSEGGCPLILTQELGKANTTDFGLTMLFDYKDDDDKHHHHHH
- EC50, luciferase reporter assay in IL-1Rrp2 transfected Jurkat cells [1]: > 136 ng/mL

B3: HuIL-1F8WT (untagged full length wild type human IL-1F8) (ligand)
chain: MNPQREAAPKSYAIRDSRQMVWVLSGNSLIAAPLSRSIKPVTLHLIACRDTEFSDKEKGNMVYLGIKGKDLCLFCAEIQGKPTLQLKEKNIMDLYVEKKAQKPFLFFHNKEGSTSVFQSVSYPGWFIATSTTSGQPIFLTKERGITNNTNFYLDSVE
- EC50, IL-8 ELISA of supernatants of Jurkat T-REx cells expressing human IL-1Rrp2 [1]: 10500 ng/mL
- EC50, luciferase reporter assay in IL-1Rrp2 transfected Jurkat cells [1]: > 193 ng/mL

B4: HuIL-1F8WT/FpH (ligand)
chain: MNPQREAAPKSYAIRDSRQMVWVLSGNSLIAAPLSRSIKPVTLHLIACRDTEFSDKEKGNMVYLGIKGKDLCLFCAEIQGKPTLQLKEKNIMDLYVEKKAQKPFLFFHNKEGSTSVFQSVSYPGWFIATSTTSGQPIFLTKERGITNNTNFYLDSVEDYKDDDDKHHHHHH
- EC50, luciferase reporter assay in IL-1Rrp2 transfected Jurkat cells [1]: > 258 ng/mL

B5: HuIL-1F9WT (untagged full length wild type human IL-1F9) (ligand)
chain: MRGTPGDADGGGRAVYQSMCKPITGTINDLNQQVWTLQGQNLVAVPRSDSVTPVTVAVITCKYPEALEQGRGDPIYLGIQNPEMCLYCEKVGEQPTLQLKEQKIMDLYGQPEPVKPFLFYRAKTGRTSTLESVAFPDWFIASSKRDQPIILTSELGKSYNTAFELNIND
- EC50, IL-8 ELISA of supernatants of Jurkat T-REx cells expressing human IL-1Rrp2 [1]: 4070 ng/mL
- EC50, luciferase reporter assay in IL-1Rrp2 transfected Jurkat cells [1]: > 544 ng/mL

B6: HuIL-1F9WT/FpH (ligand)
chain: MRGTPGDADGGGRAVYQSMCKPITGTINDLNQQVWTLQGQNLVAVPRSDSVTPVTVAVITCKYPEALEQGRGDPIYLGIQNPEMCLYCEKVGEQPTLQLKEQKIMDLYGQPEPVKPFLFYRAKTGRTSTLESVAFPDWFIASSKRDQPIILTSELGKSYNTAFELNINDDYKDDDDKHHHHHH
- EC50, luciferase reporter assay in IL-1Rrp2 transfected Jurkat cells [1]: > 332 ng/mL

B7: HuIL-1F6I7/FpH (ligand)
chain: MIDTPQRGSIQDINHRVWVLQDQTLIAVPRKDRMSPVTIALISCRHVETLEKDRGNPIYLGLNGLNLCLMCAKVGDQPTLQLKEKDIMDLYNQPEPVKSFLFYHSQSGRNSTFESVAFPGWFIAVSSEGGCPLILTQELGKANTTDFGLTMLFDYKDDDDKHHHHHH
- EC50, IL-8 ELISA of supernatants of Jurkat T-REx cells expressing human IL-1Rrp2 [2]: 60 ng/mL
- EC50, luciferase reporter assay in IL-1Rrp2 transfected Jurkat cells [3]: 2.8 ng/mL

B8: HuIL-1F8E6/FpH (ligand)
chain: MEAAPKSYAIRDSRQMVWVLSGNSLIAAPLSRSIKPVTLHLIACRDTEFSDKEKGNMVYLGIKGKDLCLFCAEIQGKPTLQLKEKNIMDLYVEKKAQKPFLFFHNKEGSTSVFQSVSYPGWFIATSTTSGQPIFLTKERGITNNTNFYLDSVEDYKDDDDKHHHHHH
- EC50, IL-8 ELISA of supernatants of Jurkat T-REx cells expressing human IL-1Rrp2 [2]: 2 ng/mL
- EC50, luciferase reporter assay in IL-1Rrp2 transfected Jurkat cells [3]: 0.2 ng/mL

B9: HuIL-1F9S18/FpH (ligand)
chain: SMCKPITGTINDLNQQVWTLQGQNLVAVPRSDSVTPVTVAVITCKYPEALEQGRGDPIYLGIQNPEMCLYCEKVGEQPTLQLKEQKIMDLYGQPEPVKPFLFYRAKTGRTSTLESVAFPDWFIASSKRDQPIILTSELGKSYNTAFELNINDDYKDDDDKHHHHHH
- EC50, IL-8 ELISA of supernatants of Jurkat T-REx cells expressing human IL-1Rrp2 [2]: 17 ng/mL
- EC50, luciferase reporter assay in IL-1Rrp2 transfected Jurkat cells [3]: 1 ng/mL

B10: HuIL-1F9M19/FpH (ligand)
chain: MMCKPITGTINDLNQQVWTLQGQNLVAVPRSDSVTPVTVAVITCKYPEALEQGRGDPIYLGIQNPEMCLYCEKVGEQPTLQLKEQKIMDLYGQPEPVKPFLFYRAKTGRTSTLESVAFPDWFIASSKRDQPIILTSELGKSYNTAFELNINDDYKDDDDKHHHHHH
- EC50, luciferase reporter assay in IL-1Rrp2 transfected Jurkat cells [3]: 1.1 ng/mL

B11: HuIL-1F6K6 (ligand)
chain: KIDTPQQGSIQDINHRVWVLQDQTLIAVPRKDRMSPVTIALISCRHVETLEKDRGNPIYLGLNGLNLCLMCAKVGDQPTLQLKEKDIMDLYNQPEPVKSFLFYHSQSGRNSTFESVAFPGWFIAVSSEGGCPLILTQELGKANTTDFGLTMLF
- EC50, IL-8 ELISA of supernatants of Jurkat T-REx cells expressing human IL-1Rrp2 [2]: 0.164 ng/mL

B12: HuIL-1F8R5 (ligand)
chain: REAAPKSYAIRDSRQMVWVLSGNSLIAAPLSRSIKPVTLHLIACRDTEFSDKEKGNMVYLGIKGKDLCLFCAEIQGKPTLQLKEKNIMDLYVEKKAQKPFLFFHNKEGSTSVFQSVSYPGWFIATSTTSGQPIFLTKERGITNNTNFYLDSVE
- EC50, IL-8 ELISA of supernatants of Jurkat T-REx cells expressing human IL-1Rrp2 [2]: 0.129 ng/mL

B13: HuIL-1F9S18 (ligand)
chain: SMCKPITGTINDLNQQVWTLQGQNLVAVPRSDSVTPVTVAVITCKYPEALEQGRGDPIYLGIQNPEMCLYCEKVGEQPTLQLKEQKIMDLYGQPEPVKPFLFYRAKTGRTSTLESVAFPDWFIASSKRDQPIILTSELGKSYNTAFELNIND
- EC50, IL-8 ELISA of supernatants of Jurkat T-REx cells expressing human IL-1Rrp2 [2]: 1 ng/mL
